Reference: US20260116991A1 (HAINAN SIMCERE ZAIMING PHARMACEUTICAL, published 2026)

Experiments:
[1] = biological target: biotinylated labeled human GPC3 protein (produced in-house) (human, UniProt P51654 25-559, limits assumed, biotinylated (Dojindo, Cat. No. LK03); sites not stated); test: ELISA, biotinylated human GPC3 protein
[2] = biological target: T1, human GPC3 on CHO-K1-human GPC3 cells (CHOK1-hGPC3.2B5) (human, UniProt P51654 25-554); test: FACS, CHOK1-hGPC3.2B5 cells;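 further: flow cytometry of humanized antibodies binding to the cells over one hour in the cold, read as cell mean fluorescence intensity, with EC50 obtained by curve fitting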
T1 construct: whole, on cells

Row | OD450 at 0.0008 nM [1] | OD450 at 0.004 nM [1] | OD450 at 0.02 nM [1] | OD450 at 0.11 nM [1] | OD450 at 0.53 nM [1] | OD450 at 2.67 nM [1] | OD450 at 13.33 nM [1] | OD450 at 66.66 nM [1] | EC50 [2] | Max MFI [2] | OD450 at 0.0004 nM [1] | OD450 at 0.002 nM [1] | OD450 at 0.011 nM [1] | OD450 at 0.056 nM [1] | OD450 at 0.28 nM [1] | OD450 at 1.39 nM [1] | OD450 at 6.94 nM [1] | OD450 at 34.72 nM [1] | Binder
1 | 0.147 OD450 | 0.371 OD450 | 1.11 OD450 | 2.1 OD450 | 2.35 OD450 | 2.5 OD450 | 2.44 OD450 | 2.65 OD450 | 1.2 nM | 5010 MFI |  |  |  |  |  |  |  |  | hAb003LH1L1b (antibody, human IgG1, V domains shown, Humanized F2.154.1; VH H1 + VL L1b; expressed as human IgG1) VH: EVQLVQSGAEVKKPGSSVKVSCKASGYTFSDYEMHWVRQAPGQGLEWMGTIDPETGNTAYTQKFMDRVTITADKSTSTAYMELSSLRSEDTAVYYCTRGYSFTYWGQGTLVTVSS VL: DIVMTQTPLSLPVTPGEPASISCRSSQNIVHSNRNTYLQWYLQKPGQSPQLLIFKVSNRFSGVPDRFSGSGSGTDFTLKISRVEAEDVGVYYCFQGSHVPFTFGQGTKLEIK
2 | 0.192 OD450 | 0.629 OD450 | 1 OD450 | 1.83 OD450 | 2.36 OD450 | 2.4 OD450 | 2.29 OD450 | 2.28 OD450 | 1.02 nM | 4880 MFI |  |  |  |  |  |  |  |  | hAb006LH2L1 (antibody, human IgG1, V domains shown, Humanized F3.38.7; VH H2 + VL L1; expressed as human IgG1) VH: EVQLVQSGAEVKKPGSSVKVSCKASGYTFTDYEIHWVRQAPGQGLEWMGAIDPKTGNTAYNQKFMGRVTITADKSTSTAYMELSSLRSEDTAVYYCTRYFSFAYWGQGTLVTVSS VL: DIVMTQTPLSLPVTPGEPASISCRSSQTFVHSNGNTYLQWYLQKPGQSPQLLIYKVSNRFSGVPDRFSGSGSGTDFTLKISRVEAEDVGVYYCFQGSHVPYTFGQGTKLEIK
3 | 0.155 OD450 | 0.309 OD450 | 0.878 OD450 | 1.93 OD450 | 2.36 OD450 | 2.42 OD450 | 2.36 OD450 | 2.5 OD450 | 0.97 nM | 4670 MFI |  |  |  |  |  |  |  |  | hAb006LH3L1b (antibody, human IgG1, V domains shown, Humanized F3.38.7; VH H3 + VL L1b; expressed as human IgG1) VH: EVQLVQSGAEVKKPGSSVKVSCKASGYTFTDYEIHWVRQAPGQGLEWMGAIDPKTGNTAYNQKFMGRVTLTADKSTSTAYMELSSLRSEDTAVYYCTRYFSFAYWGQGTLVTVSS VL: DIVMTQTPLSLPVTPGEPASISCRSSQTFVHSNANTYLQWYLQKPGQSPQLLIYKVSNRFSGVPDRFSGSGSGTDFTLKISRVEAEDVGVYYCFQGSHVPYTFGQGTKLEIK
4 |  |  |  |  |  |  |  |  | 1.16 nM | 18000 MFI | 0.071 OD450 | 0.102 OD450 | 0.265 OD450 | 0.756 OD450 | 1.3 OD450 | 1.46 OD450 | 1.44 OD450 | 1.36 OD450 | hAb006LH3L1c (antibody, human IgG1, V domains shown, Humanized F3.38.7; VH H3 + VL L1c; expressed as human IgG1) VH: EVQLVQSGAEVKKPGSSVKVSCKASGYTFTDYEIHWVRQAPGQGLEWMGAIDPKTGNTAYNQKFMGRVTLTADKSTSTAYMELSSLRSEDTAVYYCTRYFSFAYWGQGTLVTVSS VL: DIVMTQTPLSLPVTPGEPASISCRSSQTFVHSNRNTYLQWYLQKPGQSPQLLIYKVSNRFSGVPDRFSGSGSGTDFTLKISRVEAEDVGVYYCFQGSHVPYTFGQGTKLEIK
5 | 0.15 OD450 | 0.288 OD450 | 0.841 OD450 | 1.71 OD450 | 2.4 OD450 | 2.46 OD450 | 2.47 OD450 | 2.57 OD450 | 1.1 nM | 4630 MFI |  |  |  |  |  |  |  |  | hAb006LH1L1b (antibody, human IgG1, V domains shown, Humanized F3.38.7; VH H1 + VL L1b; expressed as human IgG1) VH: EVQLVQSGAEVKKPGSSVKVSCKASGYTFSDYEIHWVRQAPGQGLEWMGAIDPKTGNTAYNQKFMGRVTITADKSTSTAYMELSSLRSEDTAVYYCTRYFSFAYWGQGTLVTVSS VL: DIVMTQTPLSLPVTPGEPASISCRSSQTFVHSNANTYLQWYLQKPGQSPQLLIYKVSNRFSGVPDRFSGSGSGTDFTLKISRVEAEDVGVYYCFQGSHVPYTFGQGTKLEIK
6 | 0.171 OD450 | 0.372 OD450 | 1.05 OD450 | 1.97 OD450 | 2.44 OD450 | 2.39 OD450 | 2.5 OD450 | 2.6 OD450 | 0.584 nM | 5000 MFI |  |  |  |  |  |  |  |  | hAb003LH2L1b (antibody, human IgG1, V domains shown, Humanized F2.154.1; VH H2 + VL L1b; expressed as human IgG1) VH: EVQLVQSGAEVKKPGSSVKVSCKASGYRFTDYEMHWVRQAPGQGLEWMGTIDPETGNTAYTQKFMDRVTITADKSTSTAYMELSSLRSEDTAVYYCTRGYSFTYWGQGTLVTVSS VL: DIVMTQTPLSLPVTPGEPASISCRSSQNIVHSNRNTYLQWYLQKPGQSPQLLIFKVSNRFSGVPDRFSGSGSGTDFTLKISRVEAEDVGVYYCFQGSHVPFTFGQGTKLEIK
7 | 0.154 OD450 | 0.287 OD450 | 0.819 OD450 | 1.65 OD450 | 2.06 OD450 | 2.2 OD450 | 2.25 OD450 | 2.33 OD450 | 0.929 nM | 4920 MFI |  |  |  |  |  |  |  |  | hAb006LH3L1 (antibody, human IgG1, V domains shown, Humanized F3.38.7; VH H3 + VL L1; expressed as human IgG1) VH: EVQLVQSGAEVKKPGSSVKVSCKASGYTFTDYEIHWVRQAPGQGLEWMGAIDPKTGNTAYNQKFMGRVTLTADKSTSTAYMELSSLRSEDTAVYYCTRYFSFAYWGQGTLVTVSS VL: DIVMTQTPLSLPVTPGEPASISCRSSQTFVHSNGNTYLQWYLQKPGQSPQLLIYKVSNRFSGVPDRFSGSGSGTDFTLKISRVEAEDVGVYYCFQGSHVPYTFGQGTKLEIK
8 | 0.117 OD450 | 0.365 OD450 | 1.05 OD450 | 1.9 OD450 | 2.39 OD450 | 2.36 OD450 | 2.42 OD450 | 2.43 OD450 | 0.906 nM | 4780 MFI |  |  |  |  |  |  |  |  | hAb006LH1L1 (antibody, human IgG1, V domains shown, Humanized F3.38.7; VH H1 + VL L1; expressed as human IgG1) VH: EVQLVQSGAEVKKPGSSVKVSCKASGYTFSDYEIHWVRQAPGQGLEWMGAIDPKTGNTAYNQKFMGRVTITADKSTSTAYMELSSLRSEDTAVYYCTRYFSFAYWGQGTLVTVSS VL: DIVMTQTPLSLPVTPGEPASISCRSSQTFVHSNGNTYLQWYLQKPGQSPQLLIYKVSNRFSGVPDRFSGSGSGTDFTLKISRVEAEDVGVYYCFQGSHVPYTFGQGTKLEIK
9 | 0.088 OD450 | 0.146 OD450 | 0.423 OD450 | 1.18 OD450 | 1.9 OD450 | 2.14 OD450 | 2.18 OD450 | 2.34 OD450 | 11.6 nM | 1770 MFI |  |  |  |  |  |  |  |  | hAb003LH2L1a (antibody, human IgG1, V domains shown, Humanized F2.154.1; VH H2 + VL L1a; expressed as human IgG1) VH: EVQLVQSGAEVKKPGSSVKVSCKASGYRFTDYEMHWVRQAPGQGLEWMGTIDPETGNTAYTQKFMDRVTITADKSTSTAYMELSSLRSEDTAVYYCTRGYSFTYWGQGTLVTVSS VL: DIVMTQTPLSLPVTPGEPASISCRSSQNIVHSDGNTYLQWYLQKPGQSPQLLIFKVSNRFSGVPDRFSGSGSGTDFTLKISRVEAEDVGVYYCFQGSHVPFTFGQGTKLEIK
10 | 0.151 OD450 | 0.376 OD450 | 1.03 OD450 | 1.98 OD450 | 2.43 OD450 | 2.47 OD450 | 2.53 OD450 | 2.54 OD450 | 1.07 nM | 5140 MFI |  |  |  |  |  |  |  |  | hAb003LH2L1 (antibody, human IgG1, V domains shown, Humanized F2.154.1; VH H2 + VL L1; expressed as human IgG1) VH: EVQLVQSGAEVKKPGSSVKVSCKASGYRFTDYEMHWVRQAPGQGLEWMGTIDPETGNTAYTQKFMDRVTITADKSTSTAYMELSSLRSEDTAVYYCTRGYSFTYWGQGTLVTVSS VL: DIVMTQTPLSLPVTPGEPASISCRSSQNIVHSNGNTYLQWYLQKPGQSPQLLIFKVSNRFSGVPDRFSGSGSGTDFTLKISRVEAEDVGVYYCFQGSHVPFTFGQGTKLEIK
11 | 0.137 OD450 | 0.297 OD450 | 0.915 OD450 | 1.89 OD450 | 2.26 OD450 | 2.56 OD450 | 2.3 OD450 | 2.39 OD450 | 1.08 nM | 5040 MFI |  |  |  |  |  |  |  |  | hAb003LH3L1 (antibody, human IgG1, V domains shown, Humanized F2.154.1; VH H3 + VL L1; expressed as human IgG1) VH: EVQLVQSGAEVKKPGSSVKVSCKASGYRFTDYEMHWVRQAPGQGLEWMGTIDPETGNTAYTQKFMDRVTLTADKSTSTAYMELSSLRSEDTAVYYCTRGYSFTYWGQGTLVTVSS VL: DIVMTQTPLSLPVTPGEPASISCRSSQNIVHSNGNTYLQWYLQKPGQSPQLLIFKVSNRFSGVPDRFSGSGSGTDFTLKISRVEAEDVGVYYCFQGSHVPFTFGQGTKLEIK
12 | 0.16 OD450 | 0.316 OD450 | 0.872 OD450 | 1.91 OD450 | 2.41 OD450 | 2.55 OD450 | 2.4 OD450 | 2.37 OD450 | 1.14 nM | 4790 MFI |  |  |  |  |  |  |  |  | hAb006LH2L1b (antibody, human IgG1, V domains shown, Humanized F3.38.7; VH H2 + VL L1b; expressed as human IgG1) VH: EVQLVQSGAEVKKPGSSVKVSCKASGYTFTDYEIHWVRQAPGQGLEWMGAIDPKTGNTAYNQKFMGRVTITADKSTSTAYMELSSLRSEDTAVYYCTRYFSFAYWGQGTLVTVSS VL: DIVMTQTPLSLPVTPGEPASISCRSSQTFVHSNANTYLQWYLQKPGQSPQLLIYKVSNRFSGVPDRFSGSGSGTDFTLKISRVEAEDVGVYYCFQGSHVPYTFGQGTKLEIK
13 |  |  |  |  |  |  |  |  | 1.98 nM | 17600 MFI | 0.058 OD450 | 0.096 OD450 | 0.228 OD450 | 0.59 OD450 | 1.11 OD450 | 1.61 OD450 | 1.33 OD450 | 1.45 OD450 | hAb006LH3L1d (antibody, human IgG1, V domains shown, Humanized F3.38.7; VH H3 + VL L1d; expressed as human IgG1) VH: EVQLVQSGAEVKKPGSSVKVSCKASGYTFTDYEIHWVRQAPGQGLEWMGAIDPKTGNTAYNQKFMGRVTLTADKSTSTAYMELSSLRSEDTAVYYCTRYFSFAYWGQGTLVTVSS VL: DIVMTQTPLSLPVTPGEPASISCRSSQTFVHSNSNTYLQWYLQKPGQSPQLLIYKVSNRFSGVPDRFSGSGSGTDFTLKISRVEAEDVGVYYCFQGSHVPYTFGQGTKLEIK
